Measured values taken from patent publication US20200181261A1.

Experiments:
[1] = target: human CEACAM6, full-length, on cells (human) (UniProt P40199); experiment: FACS, 5 µg/ml, BxPc3 cells
[2] = target: human CEACAM6, full-length, on cells (human) (UniProt P40199); experiment: FACS, 5 µg/ml, MCF7 cells
[3] = target: human CEACAM6, full-length, on cells (human) (UniProt P40199); experiment: FACS, 5 µg/ml, A549 cells
[4] = target: human CEACAM6, full-length, on cells (human) (UniProt P40199); experiment: FACS, 5 µg/ml, SNU-C1 cells
[5] = target: human CEACAM6, full-length, on cells (human) (UniProt P40199); experiment: FACS, transfected HeLa cells
[6] = target: human CEACAM6, full-length, on cells (human) (UniProt P40199); experiment: FACS, 5 µg/ml, MDA-MB-361 cells
[7] = target: human CEACAM6, full-length, on cells (human) (UniProt P40199); experiment: FACS, 5 µg/ml, NCI-H1993 cells
[8] = target: human CEACAM6, full-length, on cells (human) (UniProt P40199); experiment: FACS, 5 µg/ml, KS cells
[9] = target: human CEACAM6, full-length, on cells (human) (UniProt P40199); experiment: FACS, 5 µg/ml, KM-12 cells
[10] = target: human CEACAM6, full-length, on cells (human) (UniProt P40199); experiment: FACS, 5 µg/ml, CL-34 cells
[11] = target: human CEACAM6, full-length, on cells (human) (UniProt P40199); experiment: FACS, 5 µg/ml, HT29 cells
[12] = target: human CEACAM6, full-length, on cells (human) (UniProt P40199); experiment: FACS, 5 µg/ml, HCC827 cells
[13] = target: human CEACAM6, full-length, on cells (human) (UniProt P40199); experiment: FACS, 5 µg/ml, HPAFII cells
[14] = target: human CEACAM6, full-length, on cells (human) (UniProt P40199); experiment: FACS, 5 µg/ml, NCI-H441 cells
[15] = target: human CEACAM6, full-length, on cells (human) (UniProt P40199); experiment: FACS, 5 µg/ml, HT55 cells
[16] = target: human CEACAM6, full-length, on cells (human) (UniProt P40199); experiment: FACS, 5 µg/ml, ZR-75-1 cells
[17] = target: human CEACAM6, full-length, on cells (human) (UniProt P40199); experiment: FACS, 5 µg/ml, MCF7/AdrVp cells
[18] = target: human CEACAM6, extracellular (mature form), R&D Systems 3934-CM (human) (UniProt P40199); experiment: SPR, antibody captured, antigen as analyte
[19] = target: human CEACAM6, full-length, on cells (human) (UniProt P40199); experiment: FACS, 5 µg/ml, DAN-G cells
[20] = target: human CEACAM6, full-length, on cells (human) (UniProt P40199); experiment: FACS, 5 µg/ml, NCI-H2228 cells
[21] = target: human CEACAM6, full-length, on cells (human) (UniProt P40199); experiment: FACS, 5 µg/ml, SW1116 cells
[22] = target: human CEACAM6, full-length, on cells (human) (UniProt P40199); experiment: FACS, 5 µg/ml, HCC2998 cells
[23] = target: human CEACAM6, full-length, on cells (human) (UniProt P40199); experiment: FACS, 5 µg/ml, NCI-H1437 cells
[24] = target: human CEACAM6, full-length, on cells (human) (UniProt P40199); experiment: FACS, 5 µg/ml, LoVo cells
[25] = target: human CEACAM6, full-length, on cells (human) (UniProt P40199); experiment: FACS, 5 µg/ml, HCC-2935 cells
[26] = target: human CEACAM6, full-length, on cells (human) (UniProt P40199); experiment: FACS, 5 µg/ml, T-47D cells
[27] = target: human CEACAM6, full-length, on cells (human) (UniProt P40199); experiment: FACS, 5 µg/ml, AsPC-1 cells
[28] = target: human CEACAM6, full-length, on cells (human) (UniProt P40199); experiment: FACS, 5 µg/ml, Calu-3 cells
[29] = target: human CEACAM6, full-length, on cells (human) (UniProt P40199); experiment: FACS, 5 µg/ml, HPAC cells
[30] = target: human CEACAM6, full-length, on cells (human) (UniProt P40199); experiment: FACS, 5 µg/ml, SNU-1 cells
[31] = target: human CEACAM6, full-length, on cells (human) (UniProt P40199); experiment: FACS, 5 µg/ml, NCI-H1688 cells
[32] = target: human CEACAM6, full-length, on cells (human) (UniProt P40199); experiment: FACS, 5 µg/ml, RPMI-8226 cells
[33] = target: human CEACAM6, full-length, on cells (human) (UniProt P40199); experiment: FACS, 5 µg/ml, WiDr cells
[34] = target: human CEACAM6, full-length, on cells (human) (UniProt P40199); experiment: FACS, 5 µg/ml, BT-474 cells

Sequence of human CEACAM6, full-length, on cells (human) (P40199 35-320 V239G): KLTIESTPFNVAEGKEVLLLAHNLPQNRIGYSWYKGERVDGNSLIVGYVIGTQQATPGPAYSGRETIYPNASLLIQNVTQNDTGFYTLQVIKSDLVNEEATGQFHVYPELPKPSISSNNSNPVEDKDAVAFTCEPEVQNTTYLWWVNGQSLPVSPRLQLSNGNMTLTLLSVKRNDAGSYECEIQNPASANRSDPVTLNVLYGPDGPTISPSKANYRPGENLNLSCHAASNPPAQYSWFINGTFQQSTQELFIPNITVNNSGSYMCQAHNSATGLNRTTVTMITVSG
Sequence of human CEACAM6, extracellular (mature form), R&D Systems 3934-CM (human) (P40199 other isoform, or with tags, fused parts or gaps limits assumed): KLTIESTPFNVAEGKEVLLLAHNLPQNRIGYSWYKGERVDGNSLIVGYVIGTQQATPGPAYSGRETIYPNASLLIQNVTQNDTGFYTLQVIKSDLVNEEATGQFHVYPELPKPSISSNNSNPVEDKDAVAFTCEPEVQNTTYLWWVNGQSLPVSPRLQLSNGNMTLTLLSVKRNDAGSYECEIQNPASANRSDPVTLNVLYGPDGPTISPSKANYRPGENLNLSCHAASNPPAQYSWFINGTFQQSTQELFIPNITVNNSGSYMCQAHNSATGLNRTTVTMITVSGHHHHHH

Work on 9A6 (mouse IgG1) (antibody) yielded an FACS median fluorescence (medianfluorescence) [1] of 1000 to 10000, an FACS median fluorescence (medianfluorescence) [2] of 10 to 100 and an FACS median fluorescence (medianfluorescence) [3] of 1000 to 10000. For the same substance, the FACS median fluorescence (medianfluorescence) [4] was 100 to 1000, the FACS median fluorescence (medianfluorescence) [5] was 1000 to 10000 and the FACS median fluorescence (medianfluorescence) [6] was 1000 to 10000. The FACS median fluorescence (medianfluorescence) [7] was 1000 to 10000, the FACS median fluorescence (medianfluorescence) [8] was 1000 to 10000 and the FACS median fluorescence (medianfluorescence) [9] was 100 to 1000. The FACS median fluorescence (medianfluorescence) [10] was 10 to 100, the FACS median fluorescence (medianfluorescence) [11] was 100 to 1000 and the FACS median fluorescence (medianfluorescence) [12] was 100 to 1000. The FACS median fluorescence (medianfluorescence) [13] was 1000 to 10000, the FACS median fluorescence (medianfluorescence) [14] was 100 to 1000 and the FACS median fluorescence (medianfluorescence) [15] was 1000 to 10000. It also gave an FACS median fluorescence (medianfluorescence) [16] of 100 to 1000, an FACS median fluorescence (medianfluorescence) [17] of 10 to 100 and a Kd [18] of 22 nM. The FACS median fluorescence (medianfluorescence) [19] was 10 to 100, the FACS median fluorescence (medianfluorescence) [20] was 100 to 1000 and the FACS median fluorescence (medianfluorescence) [21] was 1000 to 10000. The FACS median fluorescence (medianfluorescence) [22] was 100 to 1000, the FACS median fluorescence (medianfluorescence) [23] was 1000 to 10000 and the FACS median fluorescence (medianfluorescence) [24] was 100 to 1000. For the same substance, the FACS median fluorescence (medianfluorescence) [25] was > 10000, the FACS median fluorescence (medianfluorescence) [26] was 10 to 100 and the FACS median fluorescence (medianfluorescence) [27] was 1000 to 10000. The FACS median fluorescence (medianfluorescence) [28] was 10 to 100, the FACS median fluorescence (medianfluorescence) [29] was > 10000 and the FACS median fluorescence (medianfluorescence) [30] was 1000 to 10000. For the same substance, the FACS median fluorescence (medianfluorescence) [31] was 10 to 100, the FACS median fluorescence (medianfluorescence) [32] was 10 to 100 and the FACS median fluorescence (medianfluorescence) [33] was 100 to 1000. The FACS median fluorescence (medianfluorescence) [34] was 1000 to 10000.
